These are literature values, as cited in US10920265B2, “Compounds and methods for detection of enzymes that remove methyl succinyl groups from epsilon-amino lysine moieties” (Enzo Life Sciences, Inc., priority 2011, dated 2021).

No end group written: not given here.

What is called kcat is the number of substrate molecules converted per active site and unit of time at saturation.

What all share (details): varied NAD^+, Du et al., 2009; cited from earlier work
For one data set, the target named is T1, SIRT1 (Homo sapiens, UniProt Q96EB6).
T1 construct: purchased ENZO Life Sciences BML-SE239
T1 sequence (Q96EB6 1-747): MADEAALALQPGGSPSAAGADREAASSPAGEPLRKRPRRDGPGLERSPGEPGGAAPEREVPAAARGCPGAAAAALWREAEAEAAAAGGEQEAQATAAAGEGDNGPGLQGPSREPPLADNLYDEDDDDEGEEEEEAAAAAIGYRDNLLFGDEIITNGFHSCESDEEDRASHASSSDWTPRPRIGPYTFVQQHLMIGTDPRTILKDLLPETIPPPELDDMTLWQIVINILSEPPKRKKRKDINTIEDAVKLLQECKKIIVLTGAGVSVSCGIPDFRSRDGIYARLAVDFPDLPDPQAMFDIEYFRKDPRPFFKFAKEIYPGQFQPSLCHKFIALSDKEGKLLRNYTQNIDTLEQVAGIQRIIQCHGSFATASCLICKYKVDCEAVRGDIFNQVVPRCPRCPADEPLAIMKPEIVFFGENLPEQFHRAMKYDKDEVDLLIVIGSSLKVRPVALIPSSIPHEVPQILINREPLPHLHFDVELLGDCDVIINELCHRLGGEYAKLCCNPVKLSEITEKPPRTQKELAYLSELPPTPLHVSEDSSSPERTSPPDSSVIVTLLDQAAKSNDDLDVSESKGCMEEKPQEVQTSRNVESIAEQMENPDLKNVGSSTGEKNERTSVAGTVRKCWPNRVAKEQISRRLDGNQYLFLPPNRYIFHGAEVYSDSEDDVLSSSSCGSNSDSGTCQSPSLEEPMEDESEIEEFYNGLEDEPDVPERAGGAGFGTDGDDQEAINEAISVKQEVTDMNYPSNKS

A further data set addresses T2, SIRT2 (Homo sapiens, UniProt Q8IXJ6).
T2 sequence (Q8IXJ6 1-389): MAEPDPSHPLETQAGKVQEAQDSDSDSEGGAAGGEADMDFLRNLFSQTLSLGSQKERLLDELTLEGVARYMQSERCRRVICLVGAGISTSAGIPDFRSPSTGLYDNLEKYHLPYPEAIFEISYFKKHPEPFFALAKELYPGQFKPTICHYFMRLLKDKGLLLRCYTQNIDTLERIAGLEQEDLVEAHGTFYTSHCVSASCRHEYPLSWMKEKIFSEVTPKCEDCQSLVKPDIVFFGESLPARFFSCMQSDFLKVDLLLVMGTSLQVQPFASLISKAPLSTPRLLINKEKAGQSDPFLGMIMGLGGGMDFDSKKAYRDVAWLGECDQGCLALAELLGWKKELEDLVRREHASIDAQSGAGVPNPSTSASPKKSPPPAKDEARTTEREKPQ

The next data set addresses T3, SIRT3 (Homo sapiens, UniProt Q9NTG7).
T3 construct: purchased ENZO Life Sciences BML-SE270
T3 sequence (Q9NTG7 1-399): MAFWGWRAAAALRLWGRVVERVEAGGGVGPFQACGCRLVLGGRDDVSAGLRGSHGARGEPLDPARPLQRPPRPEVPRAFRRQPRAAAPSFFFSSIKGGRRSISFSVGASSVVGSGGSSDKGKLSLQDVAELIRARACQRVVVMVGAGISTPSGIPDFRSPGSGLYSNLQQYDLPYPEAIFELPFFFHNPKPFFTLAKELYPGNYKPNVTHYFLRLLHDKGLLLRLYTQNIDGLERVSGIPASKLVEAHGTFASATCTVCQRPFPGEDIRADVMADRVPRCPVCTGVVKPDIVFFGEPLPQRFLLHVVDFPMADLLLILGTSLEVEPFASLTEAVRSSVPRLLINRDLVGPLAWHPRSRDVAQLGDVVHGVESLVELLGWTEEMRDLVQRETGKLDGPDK

Another data set concerns the target T4, SIRT5 (Homo sapiens, UniProt Q9NXA8).
T4 sequence (Q9NXA8 37-310): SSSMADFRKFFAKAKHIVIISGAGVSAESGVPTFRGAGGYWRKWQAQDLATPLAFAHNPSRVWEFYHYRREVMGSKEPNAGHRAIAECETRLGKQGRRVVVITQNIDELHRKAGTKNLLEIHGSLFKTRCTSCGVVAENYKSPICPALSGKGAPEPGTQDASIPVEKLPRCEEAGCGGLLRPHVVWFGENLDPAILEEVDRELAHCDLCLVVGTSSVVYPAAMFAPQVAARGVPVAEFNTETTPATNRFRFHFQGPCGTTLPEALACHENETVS
Also on record: purchased Enzo Life Sciences BML-SE555.

On to “Hist. H3 4-15, K9Ac: unlabeled peptide, histone H3 residues 4-15 acetylated on lysine-9 (KQTARK(Ac)STGGKA; UniProt P68431 5-16, looked up, fragment)”, for which the turnover number (kcat) with SIRT1 is 0.079 s⁻¹; with SIRT2, 0.021 s⁻¹; in the data set with SIRT3, 0.009 s⁻¹; in the data set with SIRT5, 0.003 s⁻¹.
